Source: patent US20130323259A1 (Novo Nordisk, published 2013)
Positions count from the first letter of the chain named. Names and notes keep the numbering of the source. Values joined by “and” are separate entries in the source; they are usually repeats but may differ in a detail not shown here. Equal entries are not always repeated. Blank lines part the entries; values can stand above or below the binder they belong to.

Columns and labels:
[1] = molecular target: T1, human IL-21 (hIL-21 protein; recombinant human IL-21) (human, UniProt Q9HBE4 25-162, limits assumed); experiment: SPR, Biacore T200, mAb captured by anti-human Fc, hIL-21 as analyte; exp no 1; Exp no 1, first of the two exp-1 rows for 0005
T1 sequence (Q9HBE4 25-162 limits assumed): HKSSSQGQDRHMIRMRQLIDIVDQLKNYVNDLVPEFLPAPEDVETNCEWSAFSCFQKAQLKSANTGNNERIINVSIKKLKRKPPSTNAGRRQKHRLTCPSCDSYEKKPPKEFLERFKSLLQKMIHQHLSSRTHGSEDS

[2] = molecular target: T1, human IL-21 (hIL-21 protein; …); experiment: SPR (Biacore), mAb captured by anti-Fc, hIL-21 as analyte; experiment no 2
[3] = molecular target: T1, human IL-21 (hIL-21 protein; …); experiment: SPR, Biacore T200, mAb captured by anti-human Fc, hIL-21 as analyte; exp no 1
Experimental: (§1) Anti-human Fc monoclonal from Biacore human Fc capture kit was immobilized onto flow cells of a CM4 sensor chip according to the manufacturer's instructions. […] The CM4 surface was regenerated after each injection cycle of analyte via two injections of 3M MgCl₂ at 50 μl/min.
(§2) In order to receive kinetic data, such as ka (association rate), kd (dissociation rate) and KD (equilibrium dissociation constant), data analysis was performed using the Biacore T200 evaluation software 1.0.

[4] = molecular target: T1, human IL-21 (hIL-21 protein; …); experiment: SPR (Biacore), average of experiments
[5] = molecular target: hIL-21: human recombinant IL-21, corresponding to residues 30-162 and with an N-terminal Methionine as … (human, UniProt Q9HBE4 30-162); experiment: HX-MS, 4 µM hIL-21 with 2.4 µM mAb
Chain of hIL-21: human recombinant IL-21, corresponding to residues 30-162 and with an N-terminal Methionine as … (Q9HBE4 other isoform, or with tags, fused parts or gaps): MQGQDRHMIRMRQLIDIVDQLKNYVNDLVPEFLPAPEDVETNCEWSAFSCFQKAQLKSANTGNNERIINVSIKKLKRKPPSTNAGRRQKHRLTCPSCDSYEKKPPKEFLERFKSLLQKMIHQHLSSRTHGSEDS

[6] = molecular target: T1, human IL-21 (hIL-21 protein; …); experiment: cell-based or functional assay
[7] = molecular target: T1, human IL-21 (hIL-21 protein; …); experiment: SPR (Biacore), mAb captured by anti-Fc, hIL-21 as analyte; experiment no 1
[8] = molecular target: T1, human IL-21 (hIL-21 protein; …); experiment: SPR, Biacore T200, mAb captured by anti-human Fc, hIL-21 as analyte; exp no 2
Experimental: as §1, §2

[9] = molecular target: T1, human IL-21 (hIL-21 protein; …); experiment: cell-based or functional assay; remark: listed apart in the source
[10] = molecular target: T1, human IL-21 (hIL-21 protein; …); experiment: SPR, Biacore T200, average of two experiments
Experimental: as §1, §2

[11] = molecular target: T1, human IL-21 (hIL-21 protein; …); experiment: SPR (Biacore), mAb captured by anti-Fc, hIL-21 as analyte; experiment no 6

kon [1]: 1.6e+07 M⁻¹ s⁻¹
Kd [2]: 0.17 pM
koff [2]: 1.1e-05 s⁻¹
kon [2]: 6.6e+07 M⁻¹ s⁻¹
Kd [3]: 0.58 pM and 0.72 pM
koff [3]: 9.5e-06 s⁻¹ and 1.1e-05 s⁻¹
kon [3]: 1.5e+07 M⁻¹ s⁻¹
Kd [4]: ≤ 1 pM
koff [4]: 1e-05 s⁻¹
amides protected from exchange in region E93-V98 at 100 sec [5]: ~2 amides
IC50 (nM), B cell proliferation, Donor 1 (0114-0000-0006) [6]: 0.82 nM
IC50 (nM), B cell proliferation, Donor 2 (0114-0000-0006) [6]: 0.83 nM
IC50 (nM), B cell proliferation, Donor 3 (0114-0000-0006) [6]: 0.57 nM
IC50 (nM), B cell proliferation, Donor 4 (0114-0000-0006) [6]: 1.33 nM
Kd [7]: 0.58 pM and 0.72 pM
koff [7]: 9.5e-06 s⁻¹ and 1.1e-05 s⁻¹
kon [7]: 1.6e+07 M⁻¹ s⁻¹ and 1.5e+07 M⁻¹ s⁻¹
Kd [8]: 0.17 pM
koff [8]: 1.1e-05 s⁻¹
kon [8]: 6.6e+07 M⁻¹ s⁻¹
B1: monoclonal antibody NNC 0114-0005 (antibody, human IgG1, kappa, V domains shown)
VH: QVQLVESGGGVVQPGRSLRLSCAASGFTFSSYGMHWVRQAPGKGLEWVAFIWYDGSDKYYADSVKGRFTISRDNSKNTLYLQMNSLRAEDTAVYYCARDGDSSDWYGDYYFGMDVWGQGTTVTVSS
VL: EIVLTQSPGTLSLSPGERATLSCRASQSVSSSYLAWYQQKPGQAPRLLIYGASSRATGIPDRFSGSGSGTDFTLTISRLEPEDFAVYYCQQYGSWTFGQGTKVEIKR
notes: also called NNC114-0005

Bioactivity as % of RM (NCC0114-0000-0006), NK-92 bioassay [9]: 89.8%
IC50 (nM), B cell proliferation, Donor 2 [6]: 0.3 nM
IC50 (nM), B cell proliferation, Donor 4 [6]: 1.35 nM
B2: 0114-0000-0043, light chain R55K variant of mAb 0006 (NNC 0114-0005) (antibody, human IgG1, kappa, V domains shown)
VH: B1 VH
VL: EIVLTQSPGTLSLSPGERATLSCRASQSVSSSYLAWYQQKPGQAPRLLIYGASSKATGIPDRFSGSGSGTDFTLTISRLEPEDFAVYYCQQYGSWTFGQGTKVEIKR

Bioactivity as % of RM (NCC0114-0000-0006), NK-92 bioassay [9]: 83.9%
amides protected from exchange in region E93-V98 at 100 sec [5]: ~2 amides
IC50 (nM), B cell proliferation, Donor 1 [6]: 1.15 nM
IC50 (nM), B cell proliferation, Donor 3 [6]: 1.12 nM
B3: 0114-0000-0041, light chain S54A variant of mAb 0006 (NNC 0114-0005) (antibody, human IgG1, kappa, V domains shown)
VH: B1 VH
VL: B2 VL with S54A, K55R

Bioactivity as % of RM (NCC0114-0000-0006), NK-92 bioassay [9]: 95.2%
amides protected from exchange in region E93-V98 at 100 sec [5]: ~2 amides
IC50 (nM), B cell proliferation, Donor 1 [6]: 0.78 nM
IC50 (nM), B cell proliferation, Donor 3 [6]: 0.92 nM
B4: 0114-0000-0039, light chain S53A variant of mAb 0006 (NNC 0114-0005) (antibody, human IgG1, kappa, V domains shown)
VH: B1 VH
VL: B2 VL with S53A, K55R

Bioactivity as % of RM (NCC0114-0000-0006), NK-92 bioassay [9]: 89.2%
Kd [3]: 0.43 pM and 0.42 pM
koff [3]: 1.2e-05 s⁻¹ and 1.1e-05 s⁻¹
kon [3]: 2.7e+07 M⁻¹ s⁻¹
amides protected from exchange in region E93-V98 at 100 sec [5]: ~2 amides
IC50 (nM), B cell proliferation, Donor 1 [6]: 1.18 nM
IC50 (nM), B cell proliferation, Donor 3 [6]: 1.21 nM
Kd [8]: 0.09 pM
koff [8]: 6.8e-06 s⁻¹
kon [8]: 7.5e+07 M⁻¹ s⁻¹
Kd [10]: ≤ 1 pM
koff [10]: 1e-05 s⁻¹
B5: NNCD-0114-0000-0038, Heavy-chain residue 31 Ser to Ala mutated form (H:S31A) of NNC 0114-0005 (antibody, human IgG1, kappa, V domains shown)
VH: B1 VH with S31A
VL: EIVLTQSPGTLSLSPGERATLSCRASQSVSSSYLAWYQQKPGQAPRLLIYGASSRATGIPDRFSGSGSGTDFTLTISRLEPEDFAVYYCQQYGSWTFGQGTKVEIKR

Kd [11]: 0.12 pM and 0.18 pM and 0.28 pM
koff [11]: 6.8e-06 s⁻¹ and 8.9e-06 s⁻¹ and 1.2e-05 s⁻¹
kon [11]: 5.5e+07 M⁻¹ s⁻¹ and 4.9e+07 M⁻¹ s⁻¹ and 4.3e+07 M⁻¹ s⁻¹
Kd [4]: ≤ 1 pM
koff [4]: 1e-05 s⁻¹
IC50 (nM), B cell proliferation, Donor 1 [6]: 1.23 nM
IC50 (nM), B cell proliferation, Donor 2 [6]: 0.86 nM
IC50 (nM), B cell proliferation, Donor 3 [6]: 1.13 nM
IC50 (nM), B cell proliferation, Donor 4 [6]: 0.91 nM
B6: monoclonal antibody NNC 0114-0015 (antibody, V domains shown)
VH: B1 VH with S31T
VL: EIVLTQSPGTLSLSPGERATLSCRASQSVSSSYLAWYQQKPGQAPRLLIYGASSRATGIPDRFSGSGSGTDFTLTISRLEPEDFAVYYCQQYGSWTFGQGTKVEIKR
notes: also called NNC114-0015

Bioactivity as % of RM (NCC0114-0000-0006), NK-92 bioassay [9]: 92.9%
amides protected from exchange in region E93-V98 at 100 sec [5]: ~2 amides
IC50 (nM), B cell proliferation, Donor 1 [6]: 0.93 nM
IC50 (nM), B cell proliferation, Donor 3 [6]: 1 nM
B7: 0114-0000-0040, light chain S53T variant of mAb 0006 (NNC 0114-0005) (antibody, human IgG1, kappa, V domains shown)
VH: B1 VH
VL: B2 VL with S53T, K55R

Bioactivity as % of RM (NCC0114-0000-0006), NK-92 bioassay [9]: 77.8%
Kd [3]: ≤ 0.46 pM
koff [3]: ≤ 1e-05 s⁻¹
kon [3]: 2.2e+07 M⁻¹ s⁻¹
IC50 (nM), B cell proliferation, Donor 2 [6]: 0.8 nM
IC50 (nM), B cell proliferation, Donor 4 [6]: 1.17 nM
Kd [8]: 0.24 pM
koff [8]: 1.3e-05 s⁻¹
kon [8]: 5.4e+07 M⁻¹ s⁻¹
Kd [10]: ≤ 1 pM
koff [10]: 1e-05 s⁻¹
B8: NNC-0114-0044, Light-chain residue 57 Thr to Ser mutated form (L:T57S) of NNC 0114-0005 (antibody, human IgG1, kappa, V domains shown)
VH: B1 VH
VL: B2 VL with K55R, T57S
